Assay results reported in US20030194404A1 (SCHERING, published 2003).

Columns and labels:
recombinant human IL-5 [1] = target: T1, recombinant human IL-5 (human, UniProt P05113 20-134); assay: cell-based or functional assay
T1 sequence (looked up): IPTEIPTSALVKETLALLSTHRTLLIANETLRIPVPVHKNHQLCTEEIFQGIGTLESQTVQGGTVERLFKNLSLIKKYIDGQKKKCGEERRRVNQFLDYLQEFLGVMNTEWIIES

murine IL-5 = target: T2, murine IL-5 (murine, UniProt P04401 21-133); assay: cell-based or functional assay
T2 sequence (looked up): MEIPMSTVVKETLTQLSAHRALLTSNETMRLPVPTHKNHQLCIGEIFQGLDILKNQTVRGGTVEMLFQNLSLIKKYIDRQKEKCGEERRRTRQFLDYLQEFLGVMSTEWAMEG

recombinant human IL-5 [2] = target: T1, recombinant human IL-5; assay: KinExA 3000 kinetic exclusion assay, Dual Curve (Unknown Antigen) method
Experimental: (§1) The KinExA uses the principle of the Kinetic Exclusion Assay method based on measuring the concentration of uncomplexed antibody in a mixture of antibody, antigen and antibody-antigen complex. The concentration of free antibody is measured by exposing the mixture to a solid-phase immobilized antigen for a very brief period of time. In practice, this is accomplished by flowing the solution phase antigen-antibody mixture past antigen coated particles trapped in a flow cell. Data, generated by the instrument are analyzed using custom software. Equilibrium constants are calculated using a mathematical theory based on the following assumptions:
(§2) All experimental procedures were performed according to the KinExA 3000™ Manual. All runs were done in duplicate.
(§3) The antibody molecular weight used for calculation was 150 Kda.

recombinant human IL-5 [3] = target: T1, recombinant human IL-5; assay: KinExA 3000 kinetic exclusion assay, Dual Curve analysis (Standard mode), 0.1 and 0.01 nM antibody
Experimental: as §1, §2, §3

IC50, TF-1 anti-proliferation assay (recombinant human IL-5 [1]): 0.25 nM
IC50, TF-1 anti-proliferation assay (murine IL-5): 0.38 nM
Kd (recombinant human IL-5 [2]): 0.0195 nM
Kd (recombinant human IL-5 [3]): 0.015 nM
B1: human monoclonal antibody 20.13.3 (antibody, human IgG4, kappa, V domains shown)
VH: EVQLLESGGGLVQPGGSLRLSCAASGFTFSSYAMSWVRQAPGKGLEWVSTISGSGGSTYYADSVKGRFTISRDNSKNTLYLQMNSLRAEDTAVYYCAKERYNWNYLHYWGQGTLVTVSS
VL: DIQMTQSPSSLSASVGDRVTITCQASQDIINYLNWYQQKPGKAPKLLIYSASNLETRVPSRFSGSGSGTDFTFTISSLQPEDIATYYCQQYDNHPLTFGGGTKVEIRR
